Laboratory results as given in article PMC6479361, “Characterization of a New DyP-Peroxidase from the Alkaliphilic Cellulomonad, Cellulomonas bogoriensis” (Molecules, 2019).

B1: CboDyP (Actinotalea bogoriensis 69B4 = DSM 16987) (protein)
chain: VGAGAGARWGSRAPEAPQPARAAGPGDVVVPCHGEHQAGIVTPPPSFIALVALDLASTSDRASVERLLRVWTVDIERLTTGRPGLADSEPELALVPAALTVTVGFGPGLLTAAGLRHRAPAWLHPLPPFGIDRLDPAWCDGDVVLQVCADDRTTLAHAVRVLTKEAQGLASVRWVQRGFRRSPGISEPDGTSMRNLMGQVEGTANLDPRTDPDLLWHRDGEPGWLTGGTSMVVRRIAMNLDTWDELSRGAREATIGRTLRTGAPLTGRAEHDEPDLEALDDHGRPVIDLEAHIRRARPTQREETFLRRAYNYDEAPPPGRASDSGLLFVTYQRDVDAQFTPVQRRLDAADLLNEWTFPVGSAVFAVPGGWSAGEYVGQRLLEG
notes: codon-optimized synthetic gene, recombinant in E. coli NEB 10-beta; N-terminal His-SUMO fusion kept for kinetics, SUMO cleaved for crystals; Tat signal predicted, first 22 residues not visible in crystal; heme-containing; motif GXXEG
B2: CboDyP (Actinotalea bogoriensis 69B4 = DSM 16987; E205D) (protein)
chain: VGAGAGARWGSRAPEAPQPARAAGPGDVVVPCHGEHQAGIVTPPPSFIALVALDLASTSDRASVERLLRVWTVDIERLTTGRPGLADSEPELALVPAALTVTVGFGPGLLTAAGLRHRAPAWLHPLPPFGIDRLDPAWCDGDVVLQVCADDRTTLAHAVRVLTKEAQGLASVRWVQRGFRRSPGISEPDGTSMRNLMGQVDGTANLDPRTDPDLLWHRDGEPGWLTGGTSMVVRRIAMNLDTWDELSRGAREATIGRTLRTGAPLTGRAEHDEPDLEALDDHGRPVIDLEAHIRRARPTQREETFLRRAYNYDEAPPPGRASDSGLLFVTYQRDVDAQFTPVQRRLDAADLLNEWTFPVGSAVFAVPGGWSAGEYVGQRLLEG
notes: as for B1

Substrate: Nc1c(S(=O)(=O)O)cc(Nc2cccc(S(=O)(=O)CCOS(=O)(=O)O)c2)c2c1C(=O)c1ccccc1C2=O
Assay: purified protein
Format: biochemical, Actinotalea bogoriensis
Conditions: 100 µM H2O2, 100 mM citrate pH 5, 50 nM enzyme, His-SUMO fusion

Protein	Km [µM]	kcat [s⁻¹]
B1	17	0.22
B2	36	2.88
